From article PMC10269885

Target: PML protein (UniProt P29590)
Test: co-immunoprecipitation (anti-HA IP, anti-PML immunoblot, densitometry)
Details: HepaRG cells transfected with 10 μg plasmid; lysates prepared 48 h posttransfection; two independent experiments; parent: est. 7.8; read off a plot

UniProt P29590, sequence (P29590 whole entry): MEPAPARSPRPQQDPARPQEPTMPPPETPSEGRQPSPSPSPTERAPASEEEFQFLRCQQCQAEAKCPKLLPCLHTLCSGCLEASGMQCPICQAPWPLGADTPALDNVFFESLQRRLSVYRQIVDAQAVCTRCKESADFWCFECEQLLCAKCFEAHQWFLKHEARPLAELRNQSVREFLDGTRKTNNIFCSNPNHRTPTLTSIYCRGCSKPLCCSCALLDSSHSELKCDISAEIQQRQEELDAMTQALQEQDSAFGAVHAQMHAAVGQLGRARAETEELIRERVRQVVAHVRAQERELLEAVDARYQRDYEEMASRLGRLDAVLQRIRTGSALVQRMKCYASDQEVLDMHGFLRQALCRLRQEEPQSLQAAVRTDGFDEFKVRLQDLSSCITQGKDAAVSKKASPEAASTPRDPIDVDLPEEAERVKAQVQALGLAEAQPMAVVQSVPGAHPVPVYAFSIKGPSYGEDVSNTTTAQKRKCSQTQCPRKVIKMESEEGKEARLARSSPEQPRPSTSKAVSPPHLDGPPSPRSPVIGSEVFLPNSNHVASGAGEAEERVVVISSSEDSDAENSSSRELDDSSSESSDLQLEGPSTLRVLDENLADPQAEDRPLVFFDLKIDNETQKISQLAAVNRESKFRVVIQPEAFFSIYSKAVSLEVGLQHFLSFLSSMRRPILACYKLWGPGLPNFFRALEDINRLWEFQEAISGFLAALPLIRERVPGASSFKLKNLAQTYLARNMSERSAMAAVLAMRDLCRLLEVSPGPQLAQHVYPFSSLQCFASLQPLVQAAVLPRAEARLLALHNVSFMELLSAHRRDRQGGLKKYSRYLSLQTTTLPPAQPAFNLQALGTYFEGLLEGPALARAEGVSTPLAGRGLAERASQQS

“HA-tagged wild-type HBV core protein (pCore-HA wt) K7R; K96R” gave a response (% input of PML co-IP) of 0.1.
